Results from publication doi:10.1101/2022.08.19.504623.
Several values for one entry are separate records, joined by “and”; a condition that tells them apart may be missing. Identical values can stand only once.

What was measured:
[1] = target: FlaK D236A with a C-terminal His6-tag (Vibrio alginolyticus); experiment: cross-linking
[2] = target: FlaK E237Q with a C-terminal His6-tag (Vibrio alginolyticus); experiment: cross-linking
[3] = target: FlaK I365E with a C-terminal His6-tag (Vibrio alginolyticus); experiment: SEC
[4] = target: FlaK I365E with a C-terminal His6-tag (Vibrio alginolyticus); experiment: cross-linking
[5] = target: FlaK K171A with a C-terminal His6-tag (Vibrio alginolyticus); experiment: cross-linking + SEC
[6] = target: FlaK K171A with a C-terminal His6-tag (Vibrio alginolyticus); experiment: SEC
[7] = target: FlaK K171A with a C-terminal His6-tag (Vibrio alginolyticus); experiment: cross-linking
[8] = target: FlaK L371E with a C-terminal His6-tag (Vibrio alginolyticus); experiment: cross-linking
[9] = target: FlaK Q140E with a C-terminal His6-tag (Vibrio alginolyticus); experiment: cross-linking
[10] = target: FlaK, wild type, with a C-terminal His6-tag (Vibrio alginolyticus); experiment: cross-linking + SEC
[11] = target: FlaK, wild type, with a C-terminal His6-tag (Vibrio alginolyticus); experiment: SEC
[12] = target: FlaK, wild type, with a C-terminal His6-tag (Vibrio alginolyticus); experiment: cross-linking

FlaK D236A with a C-terminal His6-tag (natural protein)
stoichiometry N [1]: 2

FlaK E237Q with a C-terminal His6-tag (natural protein)
stoichiometry N [2]: 2

FlaK I365E with a C-terminal His6-tag (natural protein)
stoichiometry N [3]: 2
stoichiometry N [4]: 2

FlaK K171A with a C-terminal His6-tag (natural protein)
stoichiometry N [5]: 4 and 6
stoichiometry N [6]: 2
stoichiometry N [7]: 2

FlaK L371E with a C-terminal His6-tag (natural protein)
stoichiometry N [8]: 2

FlaK Q140E with a C-terminal His6-tag (natural protein)
stoichiometry N [9]: 2

FlaK, wild type, with a C-terminal His6-tag (natural protein)
stoichiometry N [10]: 4 and 6
stoichiometry N [11]: 2
stoichiometry N [12]: 2
